From patent US20230140293A1 come the findings set out here.

In assay [1] the target is CH0505TF.gly3.197 Env, Env-pseudotyped virus produced in 293T cells (HIV-1). The assay can be described thus: cell-based or functional assay.
Assay [2] has as its target CH0505TF.gly3.461 Env, pseudotyped virus produced in 293S GnTI- cells (HIV-1). The assay can be described thus: cell-based or functional assay.
For assay [3], the target named is HIV-1 Env 426c.TM4 (S278R.G471S.N460D.N463D), Env-pseudotyped virus produced in 293S GnTI- cells (Man5-enriched) (HIV-1 clade C strain 426c). The assay can be described thus: cell-based or functional assay.
For assay [4], the target named is HIV-1 Env 426c.DM (N460D.N463D), Env-pseudotyped virus produced in 293T cells (HIV-1 clade C strain 426c). The assay can be described thus: cell-based or functional assay.
Assay [5] addresses HIV-1 Env 426c.TM (N276D.N460D.N463D), Env-pseudotyped virus produced in 293S GnTI- cells (Man5-enriched) (HIV-1 clade C strain 426c). The assay can be described thus: cell-based or functional assay.
Assay [6] addresses HIV-1 clade C strain 426c Env on Env-pseudotyped virus produced in 293T cells (HIV-1). The assay can be described thus: cell-based or functional assay.
Assay [7] deals with HIV-1 CH0505TF (CH505 transmitted/founder) Env on Env-pseudotyped virus produced in 293T cells (HIV-1). The assay can be described thus: cell-based or functional assay.
Assay [8] addresses HIV-1 426c.DM (N460D/N463D) Env on Env-pseudotyped virus produced in 293s/GnTI-/- cells (Man5-enrichment) (HIV-1). The assay can be described thus: cell-based or functional assay.
The target of assay [9] is HIV-1 Env 426c, Env-pseudotyped virus produced in 293T cells (HIV-1 clade C strain 426c). The assay can be described thus: cell-based or functional assay.
Assay [10] deals with CH0505TF.gly4 Env, pseudotyped virus produced in 293S GnTI- cells (HIV-1). The assay can be described thus: cell-based or functional assay.
For assay [11], the target named is HIV-1 426c.TM (N276D/N460D/N463D) Env on Env-pseudotyped virus produced in 293s/GnTI-/- cells (Man5-enrichment) (HIV-1). The assay can be described thus: cell-based or functional assay.
The target of assay [12] is CH0505TF.gly3.276 Env, pseudotyped virus produced in 293S GnTI- cells (HIV-1). The assay can be described thus: cell-based or functional assay.
The target of assay [13] is HIV-1 Env 426c.DM (N460D.N463D), Env-pseudotyped virus produced in 293S GnTI- cells (Man5-enriched) (HIV-1 clade C strain 426c). The assay can be described thus: cell-based or functional assay.
For assay [14], the target named is CH0505TF.gly3.276 Env, Env-pseudotyped virus produced in 293T cells (HIV-1). The assay can be described thus: cell-based or functional assay.
The target in assay [15] is HIV-1 CH0505TF.gly3.197 Env on Env-pseudotyped virus produced in 293T cells (HIV-1). The assay can be described thus: cell-based or functional assay.
For assay [16], the target named is HIV-1 Env 426c.SM (N276D), Env-pseudotyped virus produced in 293T cells (HIV-1 clade C strain 426c). The assay can be described thus: cell-based or functional assay.
Assay [17] concerns the target CH0505.w4.3 Env, Env-pseudotyped virus produced in 293T cells (HIV-1). The assay can be described thus: cell-based or functional assay.
In assay [18] the target is HIV-1 Env 426c.TM4 (S278R.G471S.N460D.N463D), Env-pseudotyped virus produced in 293T cells (HIV-1 clade C strain 426c). The assay can be described thus: cell-based or functional assay.
Assay [19] has as its target HIV-1 CH0505TF.gly3.197 Env on Env-pseudotyped virus produced in 293S/GnTI-/- cells (Man5-enrichment) (HIV-1). The assay can be described thus: cell-based or functional assay.
Assay [20] deals with HIV-1 426c.SM (N276D) Env on Env-pseudotyped virus produced in 293s/GnTI-/- cells (Man5-enrichment) (HIV-1). The assay can be described thus: cell-based or functional assay.
The target of assay [21] is HIV-1 clade C strain 426c Env on Env-pseudotyped virus produced in 293s/GnTI-/- cells (Man5-enrichment) (HIV-1). The assay can be described thus: cell-based or functional assay.
The target in assay [22] is HIV-1 426c.DM (N460D/N463D) Env on Env-pseudotyped virus produced in 293T cells (HIV-1). The assay can be described thus: cell-based or functional assay.
Assay [23] deals with CH0505TF.gly4 Env, Env-pseudotyped virus produced in 293T cells (HIV-1). The assay can be described thus: cell-based or functional assay.
Assay [24] addresses HIV-1 426c.TM (N276D/N460D/N463D) Env on Env-pseudotyped virus produced in 293T cells (HIV-1). The assay can be described thus: cell-based or functional assay.
The target in assay [25] is HIV-1 426c.SM (N276D) Env on Env-pseudotyped virus produced in 293T cells (HIV-1). The assay can be described thus: cell-based or functional assay.
Assay [26] addresses HIV-1 Env 426c.SM (N276D), Env-pseudotyped virus produced in 293S GnTI- cells (Man5-enriched) (HIV-1 clade C strain 426c). The assay can be described thus: cell-based or functional assay.
The target of assay [27] is CH0505TF.G458Y Env, Env-pseudotyped virus produced in 293T cells (HIV-1). The assay can be described thus: cell-based or functional assay.
Assay [28] concerns the target CH0505TF Env, pseudotyped virus produced in 293S GnTI- cells (HIV-1). The assay can be described thus: cell-based or functional assay.
For assay [29], the target named is CH0505TF.gly3.461 Env, Env-pseudotyped virus produced in 293T cells (HIV-1). The assay can be described thus: cell-based or functional assay.
Assay [30] deals with HIV-1 Env 426c, Env-pseudotyped virus produced in 293S GnTI- cells (Man5-enriched) (HIV-1 clade C strain 426c). The assay can be described thus: cell-based or functional assay.
In assay [31] the target is HIV-1 Env 426c.TM (N276D.N460D.N463D), Env-pseudotyped virus produced in 293T cells (HIV-1 clade C strain 426c). The assay can be described thus: cell-based or functional assay.
Assay [32] has as its target HIV-1 CH0505TF.gly4 Env on Env-pseudotyped virus produced in 293T cells (HIV-1). The assay can be described thus: cell-based or functional assay.
Assay [33] has as its target CH0505TF.G458Y Env, pseudotyped virus produced in 293S GnTI- cells (HIV-1). The assay can be described thus: cell-based or functional assay.
Assay [34] deals with CH0505TF Env, Env-pseudotyped virus produced in 293T cells (HIV-1). The assay can be described thus: cell-based or functional assay.
For assay [35], the target named is HIV-1 CH0505TF.gly4 Env on Env-pseudotyped virus produced in 293S/GnTI-/- cells (Man5-enrichment) (HIV-1). The assay can be described thus: cell-based or functional assay.
Assay [36] addresses CH0505TF.gly3.197 Env, pseudotyped virus produced in 293S GnTI- cells (HIV-1). The assay can be described thus: cell-based or functional assay.
Assay [37] addresses HIV-1 CH0505TF Env on Env-pseudotyped virus produced in 293S/GnTI-/- cells (Man5-enrichment) (HIV-1). The assay can be described thus: cell-based or functional assay.
Assay [38] deals with HIV-1 CH0505TF.G458Y Env on Env-pseudotyped virus produced in 293T cells (HIV-1). The assay can be described thus: cell-based or functional assay.
In assay [39] the target is HIV-1 CH0505TF (CH505 transmitted/founder) Env on Env-pseudotyped virus produced in 293T cells (HIV-1). The assay can be described thus: cell-based or functional assay. This is another data set of the same source.
Assay [40] deals with HIV-1 CH0505TF.N280D Env on Env-pseudotyped virus produced in 293T cells (HIV-1). The assay can be described thus: cell-based or functional assay.
The target of assay [41] is HIV-1 CH0505TF.S365P Env on Env-pseudotyped virus produced in 293T cells (HIV-1). The assay can be described thus: cell-based or functional assay.
The target in the next assay is CH505 M11 gp120 (HIV-1). The assay can be described thus: ELISA, gp120 on plate.
For assay [42], the target named is CH505 w053.31 gp120 (HIV-1). The assay can be described thus: ELISA, gp120 on plate.
Assay [43] has as its target CH505 transmitted/founder (TF) gp120 (HIV-1). The assay can be described thus: ELISA, gp120 on plate.
Assay [44] has as its target CH505 w100.B6 gp120 (HIV-1). The assay can be described thus: ELISA, gp120 on plate.
The target of assay [45] is CH505 w030.21 gp120 (HIV-1). The assay can be described thus: ELISA, gp120 on plate.
The target of another assay is CH505 M5 gp120 (HIV-1). The assay can be described thus: ELISA, gp120 on plate. A general note: An ELISA detects its analyte on a solid surface through an enzyme-linked reagent.
Assay [46] has as its target CH505 w078.33 gp120 (HIV-1). The assay can be described thus: ELISA, gp120 on plate.
Assay [47] concerns the target CH505 w053.16 gp120 (HIV-1). The assay can be described thus: ELISA, gp120 on plate.
The target of assay [48] is CH505 w030.28 gp120 (HIV-1). The assay can be described thus: ELISA, gp120 on plate.
The target of assay [49] is CH505 w078.15 gp120 (HIV-1). The assay can be described thus: ELISA, gp120 on plate.
For assay [50], the target named is CH505 w020.14 gp120 (HIV-1). The assay can be described thus: ELISA, gp120 on plate.

In the case of VRC01 (antibody), the IC50 (µg/ml) in TZM-bl in [1] stood at 0.023 µg/mL; in assay [2], 0.015 µg/mL; in [3], 0.007 µg/mL; in assay [4], 0.41 µg/mL; in assay [5], 0.015 µg/mL; in [9], 2.2 µg/mL. Besides, the IC50 (µg/ml) in TZM-bl in [10] was 0.001 µg/mL; in [12], 0.003 µg/mL; in assay [13], 0.04 µg/mL; in assay [14] it was 0.004 µg/mL; in assay [16], 0.39 µg/mL; in [17], 0.05 µg/mL. The IC50 (µg/ml) in TZM-bl in [18] was 0.002 µg/mL; in assay [23], 0.002 µg/mL; in [26], 0.04 µg/mL; in [27], over 25 µg/mL; in assay [28], 0.03 µg/mL; in assay [29] it was 1.98 µg/mL. For the same substance, the IC50 (µg/ml) in TZM-bl in assay [30] was 0.19 µg/mL; in assay [31] it was 0.03 µg/mL; in [33], 0.91 µg/mL; in assay [34], 0.1 µg/mL; in assay [36] it was 0.009 µg/mL; in assay [38], over 25 µg/mL. Moreover, the figures for the IC50 (µg/ml) in TZM-bl in assay [39], in assay [40] and in assay [41] were 0.1 µg/mL, over 25 µg/mL and 0.1 µg/mL, respectively. Besides, the ID50/IC50 in TZM-bl in [6] is 2.2 µg/mL; in assay [8] it was 0.04 µg/mL; in [11], 0.015 µg/mL; in assay [20], 0.04 µg/mL; in assay [21], 0.19 µg/mL; in [22], 0.41 µg/mL. In addition, the ID50/IC50 in TZM-bl is 0.03 µg/mL in assay [24] and 0.39 µg/mL in assay [25]. The IC50 (ug/ml) in TZM-bl cells was found to be 0.09 µg/mL in [7]; 0.023 µg/mL in [15]; 0.009 µg/mL in [19]; 0.002 µg/mL in [32]; 0.001 µg/mL in assay [35]; 0.03 µg/mL in [37].

On to “CH103 lineage intermediate ancestor IA1 (antibody)”, for which the log AUC stood at 12.2 log AUC with CH505 M11 gp120 (HIV-1); 13.4 log AUC in assay [42]; 10.4 log AUC in [43]; 12.2 log AUC in [44]; 11.8 log AUC in assay [45]; 7 log AUC in the assay with CH505 M5 gp120 (HIV-1). Also, the log AUC worked out at 8.2 log AUC in assay [46]; 8.8 log AUC in assay [47]; 10.1 log AUC in [48]; 10.9 log AUC in assay [49]; 10.3 log AUC in assay [50].

Consider CH105 (antibody), for which the log AUC came to 11.7 log AUC in the assay with CH505 M11 gp120 (HIV-1); 13.5 log AUC in assay [42]; 11.2 log AUC in assay [43]; 11 log AUC in [44]; 10.6 log AUC in [45]; 8.6 log AUC with CH505 M5 gp120 (HIV-1). In addition, the log AUC in assay [46] came to 8.9 log AUC; in [47], 9 log AUC; in assay [48], 9.1 log AUC; in assay [49], 10.1 log AUC; in [50] it was 10.4 log AUC.
